The labels stand for the following.
T1: Mouse ASGR-1 (mouse, UniProt P34927 1-284)
T1 construct: Expressed on HEK 293 cells or as membrane prep on beads; cDNA GenBank BC022106.1; also called muASGR-1; mASGR-1
T1 sequence: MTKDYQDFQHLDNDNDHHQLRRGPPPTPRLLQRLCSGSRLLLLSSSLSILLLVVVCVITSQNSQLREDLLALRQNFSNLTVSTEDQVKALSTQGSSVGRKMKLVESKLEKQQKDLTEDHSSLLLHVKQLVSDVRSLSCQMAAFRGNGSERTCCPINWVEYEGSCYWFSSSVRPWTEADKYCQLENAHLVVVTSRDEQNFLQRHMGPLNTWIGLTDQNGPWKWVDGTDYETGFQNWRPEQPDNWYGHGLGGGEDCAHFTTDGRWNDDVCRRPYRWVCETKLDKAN

T2: human ASGR-1 mutant construct H203 (human, UniProt P07306 1-291)
T2 construct: Arg/Glu scanning: non-arginine residues were changed to arginine; Transiently expressed on CHO-S cells
T2 sequence: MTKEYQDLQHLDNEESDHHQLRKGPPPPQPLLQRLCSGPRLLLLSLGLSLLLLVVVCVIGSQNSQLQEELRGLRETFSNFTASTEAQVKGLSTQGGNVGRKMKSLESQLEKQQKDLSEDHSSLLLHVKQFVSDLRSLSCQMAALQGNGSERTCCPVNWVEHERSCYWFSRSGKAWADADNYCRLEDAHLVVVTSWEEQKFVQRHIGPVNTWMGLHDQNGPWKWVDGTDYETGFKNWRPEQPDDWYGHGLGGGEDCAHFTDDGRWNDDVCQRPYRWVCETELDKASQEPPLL

T3: human ASGR-1 (wild type) (human, UniProt P07306 1-291)
T3 construct: also called wt ASGR1; huASGR-1
T3 sequence: T2 sequence with R203H

B1: 190F8 (antibody, V domains shown)
VH: QVQLVESGGGVVQPGRSLRLSCAASGFTFSTYGMHWVRQAPGKGLEWVAVIWYDGSNKNYADSVKGRFTISRDNSKNTLYLQMNSLRAEDTAVYYCARDQGVGYDGLDVWGQGTTVTVSS
VL: DIQMTQSPSSLSASVGDRVTITCRTSQGIGNYLAWFQQKPGKAPKSLLYKASSLQSGVPSKFSGSGSGTDFTLTISSLQPEDFATYYCQQYMTYPLTFGGGTKVEIK
notes: Tested as hybridoma supernatant at normalized concentration
B2: 194C1 (antibody, V domains shown)
VH: B1 VH with T31S, K58E, N59H, D99N, Q100R, D105Y
VL: B1 VL with T25A, G30S, L48I, K50A, Q89L, Q90H, M92L
notes: as for B1
B3: 191G1 (antibody, V domains shown)
VH: B1 VH with T31S, K58E, N59H, Q100R, D105Y
VL: B1 VL with T25A, G30S, L48I, K50A, Q90H, M92L
notes: as for B1
B4: 191G10 (antibody, V domains shown)
VH: B1 VH with T31S
VL: B1 VL with N31K, A51V
notes: as for B1
B5: 198G3 (antibody, V domains shown)
VH: B1 VH with R19K, S56T, Y80C
VL: B1 VL with T5A, N31K, S56G
notes: as for B1
B6: 190F8 (antibody, V domains shown)
VH: B1 VH
VL: B1 VL
notes: mAb
B7: 197G3 (antibody, V domains shown)
VH: B1 VH with A23V, T31S, Y32H, Q100P, G101S, L107M
VL: DIQMTQSPSSLSASVGDRVTITCRASQGIGNHLAWFQQKPGKAPKSLIYAASSLQSGVPSKFSGSRSGTDFSLTISSLQPEDFATYYCQQYSNYPVTFGPGTKVDIK
notes: mAb
B8: 194C1 (antibody, V domains shown)
VH: B1 VH with T31S, K58E, N59H, D99N, Q100R, D105Y
VL: B1 VL with T25A, G30S, L48I, K50A, Q89L, Q90H, M92L
notes: mAb
B9: 191G10 (antibody, V domains shown)
VH: B1 VH with T31S
VL: B1 VL with N31K, A51V
notes: mAb
B10: 198G3 (antibody, V domains shown)
VH: B1 VH with R19K, S56T, Y80C
VL: B1 VL with T5A, N31K, S56G
notes: mAb
B11: 191G1 (antibody, V domains shown)
VH: B1 VH with T31S, K58E, N59H, Q100R, D105Y
VL: B1 VL with T25A, G30S, L48I, K50A, Q90H, M92L
notes: mAb
B12: 218G4 (antibody, V domains shown)
VH: QVQLVESGGGVVQPGRSLRLSCAASGFTFSSYGLHWVRQAPGKGLEWVAVIWYDGSNKYYADSVKGRFTISRDNSKNTLYLQMNSLRVEDTAVYYCANWYYYYYGMDVWGQGTTVTVSS
VL: QSVLTQPPSVSAAPGQKVTISCSGSSSNIGNNYVSWYQQLPGTAPKLLLYDSNKRPSGIPARFSGSKSGTSATLGITGLQTGDEADYYCGTWDSSLNTVVFGGGTKLTVL
notes: mAb
B13: 194C10 (antibody, V domains shown)
VH: QVQLQQWGAGLLKPSETLSLTCAVSGGSFRYYYWSWIRQPPGKGLEWFGEINHSGSTNYNPSLKSRVTISIDTSKNQFSLKLRSVTAADTAVYYCARDYGAFDIWGQGTMVTVSS
VL: EIVLTQSPGTLSLSPGERATLSCRASPSVNSGYLAWYQQKPGQTPRLLIFGASSRATGIPDRFSASGSGADFTLTISRLEPEDFAVYFCQQYESSPWTFGQGTKVEIK
notes: mAb
B14: 176H4 (antibody, V domains shown)
VH: QVQLVESGGGVVQPGRSLRLSCAASGFTFSSYGMHWVRQAPGKGLEWVAIIWYDGSYKYYADSVKGRFTISRDNSKNTLYLQMSSLRAEDTAVYYCARDAHDFWSGYFAYWGQGALVTVSS
VL: DIVMTQTPLSLSVTPGQPASISCKSSQSLLHGDGKTYLYWYLQKPGQPPQLLIYEVSNRFSGVPDRFSGSGSGTDFTLKISRVEAEDVGIYYCMQSIQIPWTFGQGTRVEIK
notes: mAb
B15: 193E7 (antibody, V domains shown)
VH: QVQLQQWGAGLLKPSETLSLTCAVYGGSFSGYFWTWIRQPPGKGLEWIGEINHSGSTNYNPSLKSRVTISVDTSKNQFSLKLSSVTAADTAVYYCARDYGADYWGQGTLVAVSA
VL: DIQMTQSPSSLSASVGDRVTITCRASQGIRNDLGWYQQKPGKAPKRLIYSASSLQRGVPSRFSGSGSGTEFTLTISSLQPEDFATYYCLQHKRYPLTFGGGTKVEIK
notes: mAb
B16: 75G3 (antibody, V domains shown)
VH: QVQLQQWGAGLLKPSETLSLTCAVYGGSLSGSYWSWIRQPPGKGLEWIGEINLSGSTNYNPSLKSRVTISVDTSKSQFSLTLRSVTAADTAVYYCARDYGGLDYWGQGTLVTVSS
VL: EIVLTQSPGTLSLSPGERATLSCRARQNVDSSYLAWYQQKPGQAPRLLIYGASSRATGIPDRFSGSGSGTDFTLTISRLEPEDFAVFYCQQYERSPWTFGQGTKVEIK
notes: mAb

Substitutions are numbered along the chain they refer to.

One assay deals with T1, Mouse ASGR-1. Put plainly: FACS on transfected HEK 293 cells or membrane preps on beads; binding = signal at least 2x irrelevant IgG. The procedure:
Human ASGR-1-specific, ligand competing antibody samples were tested for binding to ASGR-1 from other species (cynomologus monkey ASGR-1, mouse ASGR-1, rat ASGR-1, dog ASGR-1, and pig ASGR-1) as well as to human ASGR-2 in FACS binding assays at normalized antibody concentrations. For cell-based assays, HEK 293 cells expressing the appropriate antigen of interest were mixed with antibody sample or controls, incubated for 1 hour at 4° C., and then washed twice. Cells with bound antibody were then incubated with Alexa Fluor® 647 IgG Fc fragment-specific detection antibody and 7-AAD viability stain for 15 minutes at 4° C., washed once and resuspended in FACS buffer. Samples were analyzed using a BD Accuri™ Flow Cytometer and an Intellicyt HyperCyt Autosampler. As a negative control, supernatants and controls were also screened against HEK 293 cells transfected with empty parental vector. […] For membrane-prep binding assays, ASGR-1 species specific membrane preps were used to coat LumAvidin® microspheres (beads) and tested for binding to selected hybridoma supernatants or controls. Briefly, ASGR-1 species specific membrane preps were incubated with streptavidin-coated LumAvidin® beads for 45 minutes in the dark at room temperature and washed twice. Beads were resuspeneded in FACS buffer containing Stabilguard®. Antigen-bound beads were then incubated with normalized antibody sample for 1 hour in the dark at room temperature, washed twice, incubated with Alexa Fluor® 488 IgG Fc fragment-specific detection antibody for 15 minutes in the dark at room temperature, washed once and finally resuspended in FACS buffer. Samples were analyzed using an Intellicyt iQue™ Screener Platform. FACS buffer supplemented with 1 mM Calcium Chloride was used in all steps. As a negative control, supernatants and controls were also screened against a non-ASGR-1 antigen membrane prep coated on the LumAvidin® beads.
Turning to B1, the binding result was “no binding”.

On to B2, for which the binding result was “no binding”.

Consider B3, for which the binding result was “no binding”.

B4: the binding result is given as “no binding”.

On to B5, for which the binding result is on record as “no binding”.

Another assay deals with T2, human ASGR-1 mutant construct H203. Put plainly: FACS, transfected CHO-S cells, mAb 5 ug/ml. The essentials:
(§1)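 Transiently transfected CHO-S cells expressing wild-type or mutant hASGR-1 incubated with antibody at 5 ug/ml, 1 h at 4 °C; bound antibody detected by Alexa Fluor 647 anti-Fc plus 7-AAD, by flow cytometry. Binding normalized to expression using an unaffected antibody (65C12), then to wild type; hits defined as >3× IQR above third quartile.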
Take B6: the “FACS Binding Geomean” value came out at 15100.

On to B7, for which the “FACS Binding Geomean” value came to 3500.

Regarding B8, the “FACS Binding Geomean” value was determined as 11000.

For B9, the “FACS Binding Geomean” value worked out at 17000.

As for B10, the “FACS Binding Geomean” value was determined as 13100.

As for B11, the “FACS Binding Geomean” value worked out at 10900.

As to B12, the “FACS Binding Geomean” value worked out at 7930.

Take B13: the “FACS Binding Geomean” value stood at 13200.

Take B14: the “FACS Binding Geomean” value was 10200.

Take B15: the “FACS Binding Geomean” value was determined as 13800.

In the case of B16, the “FACS Binding Geomean” value was found to be 14500.

The next assay deals with T3, human ASGR-1 (wild type). Put plainly: FACS, transfected CHO-S cells, mAb 5 ug/ml. The essentials:
as §1
For B6, the “FACS Binding Geomean” value was 36500.

Turning to B7, the “FACS Binding Geomean” value stood at 13300.

For B8, the “FACS Binding Geomean” value came to 20900.

For the molecule B9, the “FACS Binding Geomean” value amounted to 33800.

As to B10, the “FACS Binding Geomean” value turned out to be 21500.

For the molecule B11, the “FACS Binding Geomean” value was 25300.

For B12, the “FACS Binding Geomean” value amounted to 12200.

In the case of B13, the “FACS Binding Geomean” value amounted to 28100.

Take B14: the “FACS Binding Geomean” value was found to be 33500.

As for B15, the “FACS Binding Geomean” value was determined as 35500.

For B16, the “FACS Binding Geomean” value turned out to be 37200.

The target of another assay is T2, human ASGR-1 mutant construct H203. Put plainly: FACS ratio: H203 normalized value / wt normalized value. A digest of the protocol:
as §1
Regarding B6, the “Normalization to wt ASGR1 Binding” value was 1.11.

Turning to B7, the “Normalization to wt ASGR1 Binding” value came to 1.75.

Turning to B8, the “Normalization to wt ASGR1 Binding” value is 0.868.

With B9, the “Normalization to wt ASGR1 Binding” value is 0.912.

Regarding B10, the “Normalization to wt ASGR1 Binding” value amounted to 0.75.

For B11, the “Normalization to wt ASGR1 Binding” value is 1.07.

For B12, the “Normalization to wt ASGR1 Binding” value amounted to 0.707.

Consider B13, for which the “Normalization to wt ASGR1 Binding” value amounted to 0.978.

In the case of B14, the “Normalization to wt ASGR1 Binding” value is 1.5.

With B15, the “Normalization to wt ASGR1 Binding” value stood at 1.18.

With B16, the “Normalization to wt ASGR1 Binding” value was found to be 1.18.

Source of the values: patent publication US20190248902A1 (published 2019).
